In patent US20240279278A1, “NMU RECEPTOR 2 AGONISTS” (Boehringer Ingelheim International GmbH, priority 2023, published 2024):

B1: C18DA-gGlu3-Sar12-AEPipAc-Tyr-Phe-NMeLeu-Nle-Dbu-NMeAla-Arg-Gly-NH2 (peptide)
peptide: EEEXXXXXXXXXXXXXYFLXXARG
HELM: PEPTIDE1{[O=C(O)CCCCCCCCCCCCCCCCC(=O)[*:2]].[gGlu].[gGlu].[gGlu].[Sar].[Sar].[Sar].[Sar].[Sar].[Sar].[Sar].[Sar].[Sar].[Sar].[Sar].[Sar].[O=C(CN1CCN(CCN[*:1])CC1)[*:2]].Y.F.[meL].[Nle].[Dab].[meA].R.G.[am]}$$$$V2.0
SMILES: CCCC[C@H](NC(=O)[C@H](CC(C)C)N(C)C(=O)[C@H](Cc1ccccc1)NC(=O)[C@H](Cc1ccc(O)cc1)NC(=O)CN1CCN(CCNC(=O)CN(C)C(=O)CN(C)C(=O)CN(C)C(=O)CN(C)C(=O)CN(C)C(=O)CN(C)C(=O)CN(C)C(=O)CN(C)C(=O)CN(C)C(=O)CN(C)C(=O)CN(C)C(=O)CN(C)C(=O)CC[C@H](NC(=O)CC[C@H](NC(=O)CC[C@H](NC(=O)CCCCCCCCCCCCCCCCC(=O)O)C(=O)O)C(=O)O)C(=O)O)CC1)C(=O)N[C@@H](CCN)C(=O)N(C)[C@@H](C)C(=O)N[C@@H](CCCNC(=N)N)C(=O)NCC(N)=O
B2: C20DA-gGlu3-Sar15-AEPipAc-Tyr-Phe-NMeLeu-Nle-Dbu-Pro-Arg-Gly-NH2 (peptide)
peptide: EEEXXXXXXXXXXXXXXXXYFLXXPRG
HELM: PEPTIDE1{[O=C(O)CCCCCCCCCCCCCCCCCCC(=O)[*:2]].[gGlu].[gGlu].[gGlu].[Sar].[Sar].[Sar].[Sar].[Sar].[Sar].[Sar].[Sar].[Sar].[Sar].[Sar].[Sar].[Sar].[Sar].[Sar].[O=C(CN1CCN(CCN[*:1])CC1)[*:2]].Y.F.[meL].[Nle].[Dab].P.R.G.[am]}$$$$V2.0
SMILES: CCCC[C@H](NC(=O)[C@H](CC(C)C)N(C)C(=O)[C@H](Cc1ccccc1)NC(=O)[C@H](Cc1ccc(O)cc1)NC(=O)CN1CCN(CCNC(=O)CN(C)C(=O)CN(C)C(=O)CN(C)C(=O)CN(C)C(=O)CN(C)C(=O)CN(C)C(=O)CN(C)C(=O)CN(C)C(=O)CN(C)C(=O)CN(C)C(=O)CN(C)C(=O)CN(C)C(=O)CN(C)C(=O)CN(C)C(=O)CN(C)C(=O)CC[C@H](NC(=O)CC[C@H](NC(=O)CC[C@H](NC(=O)CCCCCCCCCCCCCCCCCCC(=O)O)C(=O)O)C(=O)O)C(=O)O)CC1)C(=O)N[C@@H](CCN)C(=O)N1CCC[C@H]1C(=O)N[C@@H](CCCNC(=N)N)C(=O)NCC(N)=O
B3: C20DA-gGlu3-Sar15-AEPipAc-Tyr-Phe-NMeLeu-Nle-Orn-Pro-Arg-Gly-NH2 (peptide)
peptide: EEEXXXXXXXXXXXXXXXXYFLXXPRG
HELM: PEPTIDE1{[O=C(O)CCCCCCCCCCCCCCCCCCC(=O)[*:2]].[gGlu].[gGlu].[gGlu].[Sar].[Sar].[Sar].[Sar].[Sar].[Sar].[Sar].[Sar].[Sar].[Sar].[Sar].[Sar].[Sar].[Sar].[Sar].[O=C(CN1CCN(CCN[*:1])CC1)[*:2]].Y.F.[meL].[Nle].[Orn].P.R.G.[am]}$$$$V2.0
SMILES: CCCC[C@H](NC(=O)[C@H](CC(C)C)N(C)C(=O)[C@H](Cc1ccccc1)NC(=O)[C@H](Cc1ccc(O)cc1)NC(=O)CN1CCN(CCNC(=O)CN(C)C(=O)CN(C)C(=O)CN(C)C(=O)CN(C)C(=O)CN(C)C(=O)CN(C)C(=O)CN(C)C(=O)CN(C)C(=O)CN(C)C(=O)CN(C)C(=O)CN(C)C(=O)CN(C)C(=O)CN(C)C(=O)CN(C)C(=O)CN(C)C(=O)CC[C@H](NC(=O)CC[C@H](NC(=O)CC[C@H](NC(=O)CCCCCCCCCCCCCCCCCCC(=O)O)C(=O)O)C(=O)O)C(=O)O)CC1)C(=O)N[C@@H](CCCN)C(=O)N1CCC[C@H]1C(=O)N[C@@H](CCCNC(=N)N)C(=O)NCC(N)=O
B4: C20DA-gGlu3-Sar15-AEPipAc-Tyr-Phe-NMeLeu-Nle-Dbu-NMeAla-Arg-Gly-NH2 (peptide)
peptide: EEEXXXXXXXXXXXXXXXXYFLXXARG
HELM: PEPTIDE1{[O=C(O)CCCCCCCCCCCCCCCCCCC(=O)[*:2]].[gGlu].[gGlu].[gGlu].[Sar].[Sar].[Sar].[Sar].[Sar].[Sar].[Sar].[Sar].[Sar].[Sar].[Sar].[Sar].[Sar].[Sar].[Sar].[O=C(CN1CCN(CCN[*:1])CC1)[*:2]].Y.F.[meL].[Nle].[Dab].[meA].R.G.[am]}$$$$V2.0
SMILES: CCCC[C@H](NC(=O)[C@H](CC(C)C)N(C)C(=O)[C@H](Cc1ccccc1)NC(=O)[C@H](Cc1ccc(O)cc1)NC(=O)CN1CCN(CCNC(=O)CN(C)C(=O)CN(C)C(=O)CN(C)C(=O)CN(C)C(=O)CN(C)C(=O)CN(C)C(=O)CN(C)C(=O)CN(C)C(=O)CN(C)C(=O)CN(C)C(=O)CN(C)C(=O)CN(C)C(=O)CN(C)C(=O)CN(C)C(=O)CN(C)C(=O)CC[C@H](NC(=O)CC[C@H](NC(=O)CC[C@H](NC(=O)CCCCCCCCCCCCCCCCCCC(=O)O)C(=O)O)C(=O)O)C(=O)O)CC1)C(=O)N[C@@H](CCN)C(=O)N(C)[C@@H](C)C(=O)N[C@@H](CCCNC(=N)N)C(=O)NCC(N)=O
B5: C20DA-gGlu4-Sar12-AEPipAc-Tyr-Phe-NMeLeu-Nle-Dbu-NMeAla-Arg-Gly-NH2 (peptide)
peptide: EEEEXXXXXXXXXXXXXYFLXXARG
HELM: PEPTIDE1{[O=C(O)CCCCCCCCCCCCCCCCCCC(=O)[*:2]].[gGlu].[gGlu].[gGlu].[gGlu].[Sar].[Sar].[Sar].[Sar].[Sar].[Sar].[Sar].[Sar].[Sar].[Sar].[Sar].[Sar].[O=C(CN1CCN(CCN[*:1])CC1)[*:2]].Y.F.[meL].[Nle].[Dab].[meA].R.G.[am]}$$$$V2.0
SMILES: CCCC[C@H](NC(=O)[C@H](CC(C)C)N(C)C(=O)[C@H](Cc1ccccc1)NC(=O)[C@H](Cc1ccc(O)cc1)NC(=O)CN1CCN(CCNC(=O)CN(C)C(=O)CN(C)C(=O)CN(C)C(=O)CN(C)C(=O)CN(C)C(=O)CN(C)C(=O)CN(C)C(=O)CN(C)C(=O)CN(C)C(=O)CN(C)C(=O)CN(C)C(=O)CN(C)C(=O)CC[C@H](NC(=O)CC[C@H](NC(=O)CC[C@H](NC(=O)CC[C@H](NC(=O)CCCCCCCCCCCCCCCCCCC(=O)O)C(=O)O)C(=O)O)C(=O)O)C(=O)O)CC1)C(=O)N[C@@H](CCN)C(=O)N(C)[C@@H](C)C(=O)N[C@@H](CCCNC(=N)N)C(=O)NCC(N)=O
B6: C20DA-gGlu4-Sar12-AEPipAc-Tyr-Phe-NMeLeu-Nle-Lys-Pro-Arg-Gly-NH2 (peptide)
peptide: EEEEXXXXXXXXXXXXXYFLXKPRG
HELM: PEPTIDE1{[O=C(O)CCCCCCCCCCCCCCCCCCC(=O)[*:2]].[gGlu].[gGlu].[gGlu].[gGlu].[Sar].[Sar].[Sar].[Sar].[Sar].[Sar].[Sar].[Sar].[Sar].[Sar].[Sar].[Sar].[O=C(CN1CCN(CCN[*:1])CC1)[*:2]].Y.F.[meL].[Nle].K.P.R.G.[am]}$$$$V2.0
SMILES: CCCC[C@H](NC(=O)[C@H](CC(C)C)N(C)C(=O)[C@H](Cc1ccccc1)NC(=O)[C@H](Cc1ccc(O)cc1)NC(=O)CN1CCN(CCNC(=O)CN(C)C(=O)CN(C)C(=O)CN(C)C(=O)CN(C)C(=O)CN(C)C(=O)CN(C)C(=O)CN(C)C(=O)CN(C)C(=O)CN(C)C(=O)CN(C)C(=O)CN(C)C(=O)CN(C)C(=O)CC[C@H](NC(=O)CC[C@H](NC(=O)CC[C@H](NC(=O)CC[C@H](NC(=O)CCCCCCCCCCCCCCCCCCC(=O)O)C(=O)O)C(=O)O)C(=O)O)C(=O)O)CC1)C(=O)N[C@@H](CCCCN)C(=O)N1CCC[C@H]1C(=O)N[C@@H](CCCNC(=N)N)C(=O)NCC(N)=O
B7: C20DA-gGlu3-Sar15-AEPipAc-Tyr-Phe-NMeLeu-Nle-Orn-bAla-Arg-Gly-NH2 (peptide)
peptide: EEEXXXXXXXXXXXXXXXXYFLXXXRG
HELM: PEPTIDE1{[O=C(O)CCCCCCCCCCCCCCCCCCC(=O)[*:2]].[gGlu].[gGlu].[gGlu].[Sar].[Sar].[Sar].[Sar].[Sar].[Sar].[Sar].[Sar].[Sar].[Sar].[Sar].[Sar].[Sar].[Sar].[Sar].[O=C(CN1CCN(CCN[*:1])CC1)[*:2]].Y.F.[meL].[Nle].[Orn].[bAla].R.G.[am]}$$$$V2.0
SMILES: CCCC[C@H](NC(=O)[C@H](CC(C)C)N(C)C(=O)[C@H](Cc1ccccc1)NC(=O)[C@H](Cc1ccc(O)cc1)NC(=O)CN1CCN(CCNC(=O)CN(C)C(=O)CN(C)C(=O)CN(C)C(=O)CN(C)C(=O)CN(C)C(=O)CN(C)C(=O)CN(C)C(=O)CN(C)C(=O)CN(C)C(=O)CN(C)C(=O)CN(C)C(=O)CN(C)C(=O)CN(C)C(=O)CN(C)C(=O)CN(C)C(=O)CC[C@H](NC(=O)CC[C@H](NC(=O)CC[C@H](NC(=O)CCCCCCCCCCCCCCCCCCC(=O)O)C(=O)O)C(=O)O)C(=O)O)CC1)C(=O)N[C@@H](CCCN)C(=O)NCCC(=O)N[C@@H](CCCNC(=N)N)C(=O)NCC(N)=O
B8: C20DA-gGlu3-Sar15-AEPipAc-Tyr-Phe-NMeLeu-Nle-Orn-Gly-Arg-Gly-NH2 (peptide)
peptide: EEEXXXXXXXXXXXXXXXXYFLXXGRG
HELM: PEPTIDE1{[O=C(O)CCCCCCCCCCCCCCCCCCC(=O)[*:2]].[gGlu].[gGlu].[gGlu].[Sar].[Sar].[Sar].[Sar].[Sar].[Sar].[Sar].[Sar].[Sar].[Sar].[Sar].[Sar].[Sar].[Sar].[Sar].[O=C(CN1CCN(CCN[*:1])CC1)[*:2]].Y.F.[meL].[Nle].[Orn].G.R.G.[am]}$$$$V2.0
SMILES: CCCC[C@H](NC(=O)[C@H](CC(C)C)N(C)C(=O)[C@H](Cc1ccccc1)NC(=O)[C@H](Cc1ccc(O)cc1)NC(=O)CN1CCN(CCNC(=O)CN(C)C(=O)CN(C)C(=O)CN(C)C(=O)CN(C)C(=O)CN(C)C(=O)CN(C)C(=O)CN(C)C(=O)CN(C)C(=O)CN(C)C(=O)CN(C)C(=O)CN(C)C(=O)CN(C)C(=O)CN(C)C(=O)CN(C)C(=O)CN(C)C(=O)CC[C@H](NC(=O)CC[C@H](NC(=O)CC[C@H](NC(=O)CCCCCCCCCCCCCCCCCCC(=O)O)C(=O)O)C(=O)O)C(=O)O)CC1)C(=O)N[C@@H](CCCN)C(=O)NCC(=O)N[C@@H](CCCNC(=N)N)C(=O)NCC(N)=O

molecular target: T1, human neuromedin U receptor 1 (human, UniProt Q9HB89 24-426); experiment: cell-based or functional assay
T1 sequence (looked up): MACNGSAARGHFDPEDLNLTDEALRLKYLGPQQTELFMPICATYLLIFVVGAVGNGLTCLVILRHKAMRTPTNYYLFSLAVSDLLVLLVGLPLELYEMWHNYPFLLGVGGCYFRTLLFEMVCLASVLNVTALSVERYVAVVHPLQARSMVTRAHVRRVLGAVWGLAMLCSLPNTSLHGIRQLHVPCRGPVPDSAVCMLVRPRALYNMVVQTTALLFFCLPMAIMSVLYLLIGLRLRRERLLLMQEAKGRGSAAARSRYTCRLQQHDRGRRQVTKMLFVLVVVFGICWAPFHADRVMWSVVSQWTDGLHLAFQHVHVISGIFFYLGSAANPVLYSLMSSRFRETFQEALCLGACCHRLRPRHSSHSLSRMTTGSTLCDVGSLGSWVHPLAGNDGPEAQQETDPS

Binder	EC50 (hNMUR1) buffer [nM]
B1	> 1000
B2	1500
B3	890
B4	> 1000

molecular target: T1, human neuromedin U receptor 1; experiment: cell-based or functional assay; remark: another data set of the same source

Binder	EC50 (hNMUR1) buffer [nM]
B5	> 1000
B6	1200
B7	> 1000
B8	> 1000
